From patent US20130289246A1 (VANDERBILT UNIVERSITY, published 2013)
Read-outs that look alike come from different tables or passages of the source.

What was measured:
[1] = target: T1, recombinant soluble 1968 H3 HA (A/Aichi/2/1968) (Influenza A virus A/Aichi/2/1968 (H3N2), UniProt P03437 17-530); experiment: ELISA, supernate
[2] = target: T2, recombinant soluble trimeric 1918 H1 HA (A/South Carolina/1/1918, wild type) (Influenza A virus A/South …, UniProt Q9WFX3 18-529); experiment: ELISA, supernate
[3] = target: HA of A/Hong Kong/1/1968 (H3N2) virus (Influenza A virus (H3N2), UniProt Q91MA7 17-566); experiment: cell-based or functional assay
[4] = target: HA of A/Vietnam/1203/2004 (H5N1) virus (Influenza A virus (H5N1)); experiment: cell-based or functional assay
[5] = target: HA of A/Alabama/1/1981 (H3N2) virus (Influenza A virus (H3N2)); experiment: cell-based or functional assay
[6] = target: T3, HA of A/California/04/2009 (H1N1) virus (Influenza A virus (H1N1)); experiment: cell-based or functional assay
[7] = target: T1, recombinant soluble 1968 H3 HA …; experiment: ELISA, supernate; remark: listed apart in the source
[8] = target: T2, recombinant soluble trimeric 1918 H1 HA …; experiment: ELISA, supernate; remark: listed apart in the source
[9] = target: T1, recombinant soluble 1968 H3 HA …; experiment: ELISA, unconcentrated supernate
[10] = target: HA of A/South Carolina/1/1918 (H1N1), wild type, on VLP (Influenza A virus A/South …, UniProt Q9WFX3 18-566); experiment: cell-based or functional assay
[11] = target: HA of A/New Caledonia/20/1999 (H1N1) virus (Influenza A virus (H1N1)); experiment: cell-based or functional assay
[12] = target: HA of A/swine/Iowa/15/1930 (H1N1) virus (Influenza A virus (H1N1)); experiment: cell-based or functional assay
[13] = target: HA of A/USSR/92/1977 (H1N1) virus (Influenza A virus (H1N1)); experiment: cell-based or functional assay
[14] = target: HA of A/New Jersey/11/1976 (H1N1) virus (Influenza A virus (H1N1)); experiment: cell-based or functional assay
[15] = target: HA of A/L3/1947 (H1N1) virus (Influenza A virus (H1N1)); experiment: cell-based or functional assay
[16] = target: HA of A/Brisbane/59/2007 (H1N1) virus (Influenza A virus (H1N1)); experiment: cell-based or functional assay
[17] = target: HA of A/Weiss/1943 (H1N1) virus (Influenza A virus (H1N1)); experiment: cell-based or functional assay
[18] = target: T3, HA of A/California/04/2009 (H1N1) virus; experiment: cell-based or functional assay; remark: listed apart in the source
[19] = target: HA of A/Rockville Illinois/5/1957 (H2N2) virus (Influenza A virus (H2N2)); experiment: cell-based or functional assay
[20] = target: HA of A/Netherlands/65/1963 (H2N2) virus (Influenza A virus (H2N2)); experiment: cell-based or functional assay
[21] = target: HA of A/swine/Missouri/2124514/2006 (H2N3) virus (Influenza A virus (H2N3)); experiment: cell-based or functional assay
[22] = target: HA of A/Albany/6/1958 (H2N2) virus (Influenza A virus (H2N2)); experiment: cell-based or functional assay
[23] = target: HA of A/Ann Arbor/7/1967 (H2N2) virus (Influenza A virus (H2N2)); experiment: cell-based or functional assay
[24] = target: HA of A/Ann Arbor/23/1957 (H2N2) virus (Influenza A virus (H2N2)); experiment: cell-based or functional assay
[25] = target: HA of A/Japan/305/1957 (H2N2) virus (Influenza A virus (H2N2), UniProt P03451 16-562); experiment: cell-based or functional assay
[26] = target: T2, recombinant soluble trimeric 1918 H1 HA …; experiment: biolayer interferometry (Octet Red), His-tagged HA on anti-Penta-HIS tips

B1: mAb 11J19 (antibody, V domains shown)
VH: EVQLQESGPGLVKPSETLSLSCTVSGGSITRSSYYWGWIRQPPGKGLEWIGNIYYSGTTYYNPSLKSRVTISVDTSKNQFSLKLSSVTAADTAVYYCARLYGSGLDYWGQGTLVTVS
VL: DIQLTQSPSFLSASVGDRVTITCRASQGSSRYVAWYQQKPGKAPKLLILAASTLHTGVPSRFSGSGSGTEFTLTISSLQPEDFATYSCQQLNGFLLTFGGGTKVEIKR
- OD [1]: 0.895 OD
- OD [2]: 0.079 OD
- HAI activity [3]: 2.5 µg/mL
- HAI activity [4]: > 20 µg/mL
- HAI activity [5]: > 20 µg/mL
- HAI activity [6]: > 20 µg/mL

B2: mAb 2K11 (antibody, V domains shown)
VH: EVQLVESGGGLVQPGGSLRLSCVASTFSLINYWMTWVRQAPGKGLEWVANIKQDGFEKYYVDSVKGRFTISRDNAKNSLYLQMNSLRVEDTAVYYCARQGSYADTYFYHYGMDVWGQGTTVTVS
VL: QSALTQPPSVSGAPGQRVTISCTGSSSNIGAGYDAYWYQQLPGTAPKLLIYGNSNRLSGVPDRFSASKSGTSASLAITGLQAEDEADYYCQSYDSSLSIFGGGTKLTVLR
- OD [7]: 0.08 OD
- OD [8]: 0.311 OD
- binding result [9]: no binding
- HAI activity [10]: 0.16 µg/mL
- HAI activity [11]: > 20 µg/mL
- HAI activity [12]: 0.16 µg/mL
- HAI activity [13]: 0.32 µg/mL
- HAI activity [14]: 1.3 µg/mL
- HAI activity [15]: > 20 µg/mL
- HAI activity [16]: > 20 µg/mL
- HAI activity [17]: > 20 µg/mL
- HAI activity [18]: 0.63 µg/mL

B3: mAb 18G6 (antibody, V domains shown)
VH: QVQLKESGPGLVKPSETLSLTCTVSGGSISSSNYNWGWIRQPPGKGLEWIGSVYYSGSTYFNPSLKSRVTISVDTSKNQFSLKLTSVTAADTAVYYCARLIAFYYDTNGYTWGQGTLVTVS
VL: NSIMTQSPFTLSASVGDKVTITCRASQSISPWLAWYQQKPGKAPKLLIYKASSLETGVPSRFSGSESGTEFTLTISGLQPDDFATYYCQQYSSFARTFGQGTKVEIKR
- OD [1]: 0.073 OD
- OD [2]: 0.075 OD

B4: mAb 2G1 (antibody, V domains shown)
VH: EVQLVESGAEVKKPGSSVKVSCKASGGTFITHVFTWVRQAPGQGLEWVGGFIAIFGTSNYAQKFQGRVTITADESTSTAYMELTSLTSEDTAVYYCARGISGSYGWFDPWGQGTLVTVS
VL: DIQLTQSPSSLSASVGDRVTITCQASQDIRKYLNWYQQKPGKAPNLLIYDASNVKTGVPSRFRGSGSGTDFTFTISSLQPEDIATYYCQQYDNLPITFGQGTRLEIKR
- HAI activity [3]: 5 µg/mL
- HAI activity [4]: > 50 µg/mL
- HAI activity [19]: 0.2 µg/mL
- HAI activity [20]: 0.05 µg/mL
- HAI activity [5]: > 50 µg/mL
- HAI activity [21]: 0.63 µg/mL
- HAI activity [22]: 0.32 µg/mL
- HAI activity [23]: > 20 µg/mL
- HAI activity [24]: 0.025 µg/mL
- HAI activity [25]: 0.7 µg/mL
- HAI activity [6]: > 50 µg/mL

B5: mAb 7A13 (antibody, V domains shown)
VH: QVQLQESAPGLVKPSGTLSLTCAVSGASLSSSDWWTWVRQPPGKGLEWIGEIHHGGSTNSNPSLQSRVTISIDKSKKQFSLKLTSVTVADTAVYYCARAPGADAGPYSENIHHWGQGTLVTVS
VL: QLVLTQSPSASASLGASVKLTCTLSSRHSDYAIGWHQQQPGKGPRYLMKLNPDGSHTKGDGIPDRFSGSSSGAERYLTISNLLSEDEADYYCQTWGTGIQVFGGGTRLTVIS
- OD [1]: 0.265 OD
- OD [2]: 0.076 OD
- HAI activity [3]: 0.7 µg/mL
- HAI activity [4]: > 20 µg/mL
- HAI activity [5]: > 20 µg/mL
- HAI activity [6]: > 20 µg/mL

B6: mAb 8F8 (antibody, V domains shown)
VH: EVQLLESGGGVVQPGRSLRLSCAASGFMFSSYVMHWVRQPPGKGLEWVAVIWYDGSKTYFADSMRGRLTVSRDNSKNALYLQMNRLRAEDTAVYYCARQQDSGYSGPEVSYYSHYGMDVWGQGTTVIVS
VL: QSVLTQSPSASGTPGRAITISCSGSSSNIGSNPVNWYQQLPGAAPKLLIYADEHRPSGVPDRFSGPKSGTSASLAISGLQSEDEADYYCAAWDDSLSGPAVVFGGGTKLTVLG
- OD [1]: 0.079 OD
- OD [2]: 0.07 OD
- HAI activity [3]: > 20 µg/mL
- HAI activity [4]: > 20 µg/mL
- HAI activity [19]: 0.4 µg/mL
- HAI activity [20]: 0.1 µg/mL
- HAI activity [21]: 0.63 µg/mL
- HAI activity [22]: 0.32 µg/mL
- HAI activity [23]: > 20 µg/mL
- HAI activity [24]: 0.1 µg/mL
- HAI activity [25]: 0.4 µg/mL
- HAI activity [6]: > 20 µg/mL

B7: 5J8 Fab (Fab, V domains shown)
VH: EVQLVESGPGLVKPSDILSLTCAVSGYSISSNYYWGWIRQPPGKGLEWIGSIYHSGSTYYKPSLESRLGISVDTSKNQFSLKLSFVSAADTAVYYCARHVRSGYPDTAYYFDKWGQGTLVTVS
VL: SYVLTQPPSVSVAPGETARISCGGNNIGTKVLHWYQQTPGQAPVLVVYDDSDRPSGIPERFSGSNSGNTATLTISRVEVGDEADYYCQVWDISTDQAVFGGGTKLTVLG
- Kd [26]: 190 nM
- koff [26]: 0.036 s⁻¹
- kon [26]: 200000 M⁻¹ s⁻¹

B8: mAb 2O10 (antibody, V domains shown)
VH: EVQLVESGGGLVQPGGSLRLSCAASGFTFNSYWMTWVRQAPGKGLEWVANINQDGSEKFFVDSVKGRFTISRDNAKTSLYLQMNSLRVEDTAVYYCAREGAPYDTYYYYYAMDVWGQGTTVTVS
VL: QSVLTQPPSVSGAPGQRVTISCTGTSSNIGAGYGVHWYQQLPGAAPKLLVYGNSNRPSGVPDRFSGSKSGTSASLAITGLQAEDEADYYCQSYDISLSGSNVFGTGTKVTVLG
- OD [7]: 0.077 OD
- OD [8]: 0.308 OD
- binding result [9]: no binding
- HAI activity [10]: 0.04 µg/mL
- HAI activity [11]: > 20 µg/mL
- HAI activity [12]: 0.08 µg/mL
- HAI activity [13]: 2.5 µg/mL
- HAI activity [14]: 2.5 µg/mL
- HAI activity [15]: > 20 µg/mL
- HAI activity [16]: > 20 µg/mL
- HAI activity [17]: > 20 µg/mL
- HAI activity [18]: 0.32 µg/mL

B9: mAb 4A10 (antibody, V domains shown)
VH: EVQLVESGGGLVQPGGSLRLSCAASGFSFSSYWMTWVRQAPGKGLEWVANIKQYGSEKYYVDSVKGRFTISRDNAKNSLYLQMNSLRDDDTAVYYCARMGSYLDTYYYHYGMDVWGQGTTVTVS
VL: QSVLTQPPSLSGAPGQRVTISCTGSSSNIGADYDVYWYQHLPGTAPKLLMYGDGYRPSGVPDRFSGSKSGTSASLAITGLQAEDEADYYCQSYDSSLSRRVVFGGGTKLTVLG
- OD [7]: 0.072 OD
- OD [8]: 0.725 OD
- binding result [9]: no binding
- HAI activity [10]: 0.08 µg/mL
- HAI activity [11]: > 20 µg/mL
- HAI activity [12]: 0.63 µg/mL
- HAI activity [13]: 0.32 µg/mL
- HAI activity [14]: 2.5 µg/mL
- HAI activity [15]: > 20 µg/mL
- HAI activity [16]: > 20 µg/mL
- HAI activity [17]: > 20 µg/mL
- HAI activity [18]: 0.16 µg/mL

B10: mAb 25J3 (antibody, V domains shown)
VH: QVQLQESGPGLVRPSETLSLTCNVSGDSINDYYWSWIRQPPGKGLEWIGYIYYSGSTNYNPSLNSRVTISVEMSKNQFSLILNSVTAADTAVYYCARVDYDSGGSFDPWGQGTLVTVS
VL: QSVLTQPPSVSGAPGQRVTISCTGSSSNIGAGYDVHWYQQLPGTAPKLLIYGNSNRPSGVPDRFSGSKSGTSASLAITGLQAEDEADFYCQSYDSRLSGYVFGTGTKVTVLG
- OD [1]: 0.623 OD
- OD [2]: 0.07 OD
